According to article PMC11286949, “Structural basis of tRNA recognition by the widespread OB fold”:
Substitutions are numbered along the chain they refer to.

Tests used:
Details in all cases: protein: recombinant; tags: His-MBP removed; tRNA fold
Arc1p dNdM1 = target: T1, Arc1p dNdM1 (Saccharomyces cerevisiae, UniProt P46672 166-376); experiment: ITC; ITC (Arc1p): 25 mM Tris-HCl pH 7.4, 150 mM NaCl, 2 mM MgCl2, 25 °C. FP and competition FP: 25 mM Tris-HCl pH 7.5, 150 mM NaCl (Arc1p) or 50 mM NaCl (Trbp111), 2 mM MgCl2, room temperature
T1 sequence: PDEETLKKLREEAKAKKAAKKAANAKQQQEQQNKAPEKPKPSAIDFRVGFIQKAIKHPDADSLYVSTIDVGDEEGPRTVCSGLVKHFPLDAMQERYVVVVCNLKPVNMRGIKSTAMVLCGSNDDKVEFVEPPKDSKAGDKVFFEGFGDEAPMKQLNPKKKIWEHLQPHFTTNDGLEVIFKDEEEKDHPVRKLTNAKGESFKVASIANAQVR

[1] = target: T2, Arc1p dN V271A/M273A/M281A (Saccharomyces cerevisiae, UniProt P46672 132-376, V271A;M273A;M281A;del1-131); experiment: as above
T2 sequence: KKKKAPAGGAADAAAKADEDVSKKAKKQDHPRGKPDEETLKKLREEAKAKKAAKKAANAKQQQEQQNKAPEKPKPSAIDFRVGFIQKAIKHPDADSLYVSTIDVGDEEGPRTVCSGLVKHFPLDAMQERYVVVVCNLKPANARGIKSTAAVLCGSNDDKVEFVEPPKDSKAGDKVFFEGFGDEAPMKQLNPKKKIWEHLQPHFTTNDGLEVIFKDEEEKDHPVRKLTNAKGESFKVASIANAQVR

Arc1p dN K269A = target: T3, Arc1p dN K269A (Saccharomyces cerevisiae, UniProt P46672 132-376, K269A;del1-131); experiment: as above
T3 sequence: T2 sequence with K138A, A140V, A142M, A150M

Arc1p dN M281A = target: T4, Arc1p dN M281A (Saccharomyces cerevisiae, UniProt P46672 132-376, M281A;del1-131); experiment: as above
T4 sequence: T2 sequence with A140V, A142M

Arc1p dN = target: T5, Arc1p dN (Saccharomyces cerevisiae, UniProt P46672 132-376, del1-131); experiment: competition fluorescence polarization; ITC (Arc1p): 25 mM Tris-HCl pH 7.4, 150 mM NaCl, 2 mM MgCl2, 25 °C. FP and competition FP: 25 mM Tris-HCl pH 7.5, 150 mM NaCl (Arc1p) or 50 mM NaCl (Trbp111), 2 mM MgCl2, room temperature
T5 sequence: T2 sequence with A140V, A142M, A150M

Arc1p = target: T6, Arc1p (Saccharomyces cerevisiae, UniProt P46672 1-376); experiment: as above
T6 sequence: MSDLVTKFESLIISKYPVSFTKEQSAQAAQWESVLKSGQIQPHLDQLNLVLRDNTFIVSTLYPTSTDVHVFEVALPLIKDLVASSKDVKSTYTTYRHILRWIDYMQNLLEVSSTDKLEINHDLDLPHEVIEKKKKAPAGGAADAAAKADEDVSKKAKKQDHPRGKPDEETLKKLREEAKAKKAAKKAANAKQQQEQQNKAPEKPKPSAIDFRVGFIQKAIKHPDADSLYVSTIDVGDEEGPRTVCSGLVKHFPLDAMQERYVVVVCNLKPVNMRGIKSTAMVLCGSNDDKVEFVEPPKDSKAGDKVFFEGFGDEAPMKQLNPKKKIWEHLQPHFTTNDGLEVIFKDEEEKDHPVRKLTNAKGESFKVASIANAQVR

B1: tRNAIle WT (structured_RNA)
RNA: AGGCUUGUAGCUCAGGUGGUUAGAGCGCACCCCUGAUAAGGGUGAGGUCGGUGGUUCAAGUCCACUCAGGCCUACCA
Kd (Arc1p dNdM1): 2550 ± 456 nM
Kd [1]: 544 ± 215 nM
Kd (Arc1p dN K269A): 1500 ± 55 nM
Kd (Arc1p dN M281A): 384 ± 48 nM
IC50 (Arc1p dN): 363 ± 96.4 nM
IC50 (Arc1p): 948 ± 241 nM
